Assay: soluble fraction after stress (log2 fold change); higher = more stays soluble; pooled small domains, quantitative proteomics
Conditions: stress: pH 4
Method in brief: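 Aggregation propensity here comes from the fold change in the soluble amount of each small protein domain after acid stress, measured in pooled custom libraries by high-throughput quantitative proteomics. The acid stress was pH 4. On the log2 scale, higher values mean more of the domain stayed soluble.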

Row | Sequence | soluble fraction (log2)
1 | HMSLLQDRQRHEALAALGYYRGSVSAAWGAASVEALKAAQAALGVEVDGKWGPKTEDVIQAALGT | -0.453
2 | HMTVKRNLVQEILRLKFRHPENFMPNRAFYQEVGINQMRWWDIFYGRKNINQEEYIALSKYF | -0.352
3 | HMGPSSIVVYVSGAVKTPGVYTLAPGSRVDDAVRAAGGLSERAESAGTNLAAQLSDGEHVHVAAAGE | -0.159
4 | HMQQSVSSLVRRYMLQTIPGINFSLKSTALALNMSDRTLQRKLLSENTSYQIILDDVRKELAIKYLKE | -0.43
5 | HMDASKVKIEDLGLSTRTENALVAASIRTAGGLARKSEMDLLSTDGLGEKGITEIKKALSDLGLELK | 0.246
6 | HMDIDNDIIENILVMGVTKAIAINLSNEFERHRIIANIEYAKEKSKNSEIKNISAFTVEAIRQDYANS | -1.12
7 | HMATRLPFGFAKRFGVLVEGKDDQITVYHKDGLQTAVILEIQRYLARPFRFEAVTPEEFERRLGLAYQS | -0.927
8 | HMRIHKQLGDRIRNLRLSSGMNQEELAFKSGISAAHLGQIERGLKSPTISTIQKIAKALNVTLPILF | 0.311
9 | HMRDVVVVPDLSGLTQMEALSKLDAESLNIGEINYGVSEMPEGVIFKQDPVYGTELMKGDTVDIFISGR | -0.709
10 | HMKTEVNITPGIIDWIERYVQTDKISSSMTEDFQHWKSGTKKPTFNQVEAFSKAINVPLGYFFLKTPPAE | -0.902
11 | HMRKLHFVMSEIYEDHPWIGSKLQDVFLPKDIRVVLVERDSKQFMPNGQTLFELGDRLTLSALHYDPA | -2.22
12 | HMQLGEEAGDELVAIVRSVINDNDKALADYLAGKSSALKFLLGQVMRQTKGRADHALVQSLLEAELEAL | -0.586
13 | HMIQIQDIAFSEFLQELDKGNIVEVNIKGDLINGDLINGKKFKTVAPYDPNLVEKLSKQNVRINVEPIN | -0.0277
14 | HMKDKSEKTKKLIFEAAFKIIREEGFSELSANKIAQVASVSKGVIFHHFSQMDDLYLFMLDTL | 0.192
15 | HMDFRVGVWVELVQQRRSVRTQLTWVSPQHTLFLFTAKDGSTQSMTLRMRDKLLAEGNLRIVAPPSR | 0.22
16 | HMWGQDVLFTIDKKEFKGKLLEQSDKHTTFLPDGQKTPQKIPNRLIKEIHLGSNKIIDFGNDFLI | 0.0314
17 | HMSEMDNMEWVREQYFQNMIYEIGEWVRDKKTGIVGEVVKRGTNYVTVVQEDFSLHKIWLEDLETTEK | -0.966
18 | HMLPVYSITEAAERLDIPASTIKWYADRFASYISPSKGKGRKRFTPEDLATLQKIHELSQDHTTEEAEAML | -1.16
19 | HMSLSKEEFETISKQVLELAGAGPIPVKELLQKMERTSKEKAWKVIEFLQAEDKIVPDATGRIQL | -0.457
20 | HMTAGTTALNKLQQGMSTQQVQAALGTPSDRTVKESGVELWKYYYPYENMLLYLKFRDGHLVSFGTN | -0.244
21 | HMDKSPMIGTAEYEGVLYWRQTKDNGATWEWITDKNGDKMPVSGPAPAVGIDKDGYWTVNGESTGVLAKD | -0.0267
22 | HMQISDNTILEDAVSRIIDENPKSVSDYFQGKEAVVGFFIGQIMRETKGTANPKIAREIVISHLEAI | -0.819
23 | HMKDITMPNVYGLTLEMAEQTLKQSELSIFKAMKINSDTVEEGKVIYTDPKANSIVSGDQEITIYVSDGP | 0.22
24 | HMQLTPAQHAILAYAIEHTGGKIEWFPDNIKGGARTKVLEGLFNKALITRDSTDWFVAAEGYDALGR | 0.428
25 | HMFTDEELEHIRSALIQAGIRLSKELGLQKMSVEKLTAAVGIAKGSFYMFFGSKEDFILEVAEYTGAQ | -0.679
26 | HMQDENAVTYLLEIKNADANDIASVLKTLKSPDADVVVYKTLNMIIFTGQGSEINGLVKVARQLDRK | -1.3
27 | HMQEERDISFIKIHLEPGHPWRGRALRELMPLKDLLIVMVVRGEDTIVPNGDTRLEEGDLLVLAAYPFEE | -2.57
28 | HMQPASPELNNQEKKVLQALPENEVIHIDELSDKIQIPVGELLTVLLSLEMKETVIQEPGKFFRRR | -0.886

Row | Sequence | soluble fraction (log2)
29 | HMFDTVFIVRKTSDKPLDGLRTYLNSIGDSLVIGEDDEAFKVHVHTNHPGKVLEEAITYGALQTVKIENMR | -0.585
30 | HMHHSGLRQSQFDEISRQIRSLLEMESLSLQELKTRMEDVPEEQLTKVVSYLLSEEIIRQENGRLQ | -1.35
31 | HMATTPEETILEYINKNNRISKQEIADLMGITRDGVSYHIKKLRKNGLLEWIGSPSNGHWEIIE | -0.52
32 | HMYSSIIGIAFTRAENKPAAPTGGSYSNPHPVDGNWKAAPYDGDGNLWYSIRHFNENVDIQDREWSDPTLG | 0.0834
33 | HMNLYHALDQQGEVYLTIPPRQSGRGKVTLMIDGRVREMDAMTDGDALKTGSKVRVTEILDENALKVEAM | -0.0493
34 | HMQSNDAGELEAVVKGIIDANPKVVADYLAGNQKVVSFFVGQAMKATKGKANPKMVSEILGKLL | ≥ 0.43
35 | HMENFYGYEIINPEAKKFFITMGVNRYALEQWIKNKSEYGLIIVKSLYPFDPRLKLFLEKNRERIQNLIF | -0.305
36 | HMFVVVPDLIGKTINQFEEDLSELNLKYVVSDSGNFNPEFKINAVLDQSPKANSKVKDGRKIYLTLNAS | -0.324
37 | HMLKEGQYSPNHFHWHKMEDIINRGGGTLLIRVYNSLPDEEIDRESDVTVHMDGVTRTVPAGTQLRLE | -0.345
38 | HMVSGLEILKIQVQDHPSDWRWALLLARTHYENGNREAAVRTLRPLQRLHPDRLEVMTLWALLA | -0.222
39 | HMSPQPPNQEAVRTRILDQAAHLFLTIGYAETTVRRIAGAVGIKAASLYHHFGSKDEVFESILIR | 0.21
40 | HMLSDFHLNHDSIVNHTVQKKETIFSLSKKYGLSINEIIKANPGIQIDKLKRRSILIIPLRKK | -0.12
41 | HMRNTETMKEIQAFVEDYFFEYHQSPSMQKVADAIGTSKSTAYYYVMEMARNGMLHYDGKTIETPHTQKS | 0.285
42 | HMQPDFLDAKASLALLGVRPQTLYAYVSRGAIRSVPQPGTKAHLYSRSDIERVMARAAARAG | -0.019
43 | HMSEVIYVAEDNVGQRIDVFLVNKLVDASRANIQKNIVDGVILVNNKNVKANYKLRLGDVVEIRTQ | -0.317
44 | HMIKEGDLVFIWNPKKGDSFLIKVQPGQSQGTHFGQIKHSEIMEHNYGEGIRTPKGQVYYLLRPTLGEFTR | -0.38
45 | HMNNFTPEHLEKDIEGSLFFRRLKETAREEPGSLTVAQKDFIQMWHDQADGVYTLRQVFVQTAFDHVRSL | 0.22
46 | HMNPAYTDSRMKTFLEELPVMKASLSQKHVTRFLVWQEYIGRHPDGYGKSQFFYHLKQNLVAAKG | 0.0452
47 | HMPLLELPDDFYPAWKPKTIYVQGQRIMLDGVAFEAKWWTQGDNPASGQADPGSSPWRTLTQEEIAKLLE | -0.56
48 | HMSQIDLQIGHKIKSKRRKLGISQADMAKKLYISPSYLNLIESGKRKINVDLLLKLSNELGIEMSDIS | 0.33
49 | HMPSLILADEPTGNLDSRNSSEVIALLKNASKRYAQTIIMITHNRSIAQSADRVLQVSDGVLTDMG | 0.0603
50 | HMKDASEFLGAKGKTITPLRPTGAAVINGEKVDVLAEGEFIPKNAEIVVIKVEGSKIIVRNANN | -0.0474
51 | HMGNHMSFKMWGEQLQEAFRALETYDTQKAKTILNELVRFPIDSDITKALKGIISNIDDMMA | -0.721
52 | HMEEFLSFIADILEVDKNTLTLETSQDDVETWDSLMQLRLLGEIEAKYGVMIPMERISTIKKLNDFYQYIK | -1.76
53 | HMEKILSYKALMNDAGKRIDQFLANNEKDISRTRIKSLILEGSLKLDNNIINDPSYKIKENDVFTLFIPEA | 0.0775
54 | HMGPESKLTDAIKDYIYALYENLKGKSKFRNTIIEEVKKLYGVDISRESIRRVVNQKTDAETTENDDDEKA | 0.197
55 | HMKWIEILKSKDGNYALLQDEKDTQFVVASGYNPDAAEDQKWGHGSYFIYWNNKENKAEMLMNAIDLFRYR | -1.34

— the domain aggregation screens of Martell et al. (2025)
